Values of other authors in article PMC4166557.

Molecular target: MLL MBM1 4-15 (Homo sapiens) (UniProt Q03164)

In the case of menin (from UniProt O00255), the Kd is given as 56 nM.
